Measurements published in patent publication US20220395553A1 (COHBAR, published 2022).
Square brackets hold non-standard residues; d marks the D form. Ends that are not written are not given here.

Key:
[1] = biological target: T1, SNAP tagged-CXC4 receptor labeled with terbium (Tag-lite CXCR4 cells, HEK293) (UniProt P61073 1-352, SNAP tag labeled with terbium fluorescent dye); assay: HTRF competition on Tag-lite CXCR4 HEK293 cells; competitor labelled CXCL12
T1 construct: whole, on cells; Bought frozen cells (PerkinElmer-CisBio), HEK293 transiently expressing the receptor; also called terbium labeled CXCR receptor
Experimental: Peptides were initially prepared as 1 mM stock in H₂O and tested at a final concentration of 400 nM. Following the manufacture's protocol, a frozen aliquot of Tag-lite CXCR4 cells was thawed and immediately seeded onto 384-well plates in TLB. Immediately following the addition of cells, 400 nM peptide (final concentration) in TLB was added to the appropriate well. […] The plates were covered in aluminum foil and left at room temperature for 3 hours. Following the 3 hour incubation period, the plates were removed from the incubator and fluorescence measured using a Cytation 1 plate reader using a HTRF filter cube ([…]; BioTek; Winooski, Vt.).

[2] = biological target: ProLink tagged human CXCR4 (C2C12 CXCR4 β-Arrestin cell line) (human, UniProt P61073 1-352); assay: cell-based or functional assay
[3] = biological target: CXCR4 on cultured U937 and Jurkat cells (human, UniProt P61073 1-352); assay: cell-based or functional assay
Sequence of CXCR4 on cultured U937 and Jurkat cells (P61073 whole entry): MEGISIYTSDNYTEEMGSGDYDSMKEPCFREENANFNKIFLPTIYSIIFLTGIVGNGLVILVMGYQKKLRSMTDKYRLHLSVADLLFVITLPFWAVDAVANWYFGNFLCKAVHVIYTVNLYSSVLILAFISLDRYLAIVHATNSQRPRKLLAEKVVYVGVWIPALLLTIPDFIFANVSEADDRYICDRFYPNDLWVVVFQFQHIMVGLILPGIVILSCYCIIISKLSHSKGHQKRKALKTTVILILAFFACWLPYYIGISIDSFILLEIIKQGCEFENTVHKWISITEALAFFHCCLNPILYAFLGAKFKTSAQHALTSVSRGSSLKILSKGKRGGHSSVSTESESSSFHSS

Sequence of ProLink tagged human CXCR4 (C2C12 CXCR4 β-Arrestin cell line) (P61073 whole entry): as above
T1 sequence (P61073 whole entry): as above

| Binder | Percent Inhibition of CXCR4/CXCL12 Binding (400 nM peptide) [1] | IC50 for Inhibition of CXCR4 Activation (β-Arrestin recruitment) [2] | Percent Inhibition of CXCR4/CXCL12 Induced p-MEK (100 nM Test Article) [3] | Percent Inhibition of CXCR4/CXCL12 Induced p-MEK (1 µM Test Article) [3] |
| --- | --- | --- | --- | --- |
| LERYHHSVRSSLRPY [SEQ ID NO: 19] | 44% | 19 nM |  |  |
| LRRYHHSVRSSLRPYT [SEQ ID NO: 24] | 8% | 102 nM |  |  |
| LERYHHSVRSSL [SEQ ID NO: 22] | 14% | 17 nM |  |  |
| LRRYHHSVRSS [SEQ ID NO: 29] | 14% | 46 nM |  |  |
| YHHSVRSSLRPYTK [SEQ ID NO: 12] | -13% | > 1000 nM |  |  |
| LRRYHHS[dA]RSSLDPYTK [SEQ ID NO: 69] | -5% | 63 nM |  |  |
| LERYNHSVRSSLRPYTK [SEQ ID NO: 42] | 32% | 22 nM |  |  |
| HHSVRSSLRPYTK [SEQ ID NO: 13] | -10% | > 1000 nM |  |  |
| LRRYHHSVESSLRPYTK [SEQ ID NO: 62] | 4% | 64 nM |  |  |
| LERYHHS[dA]RSTLRPYTK [SEQ ID NO: 77] | 77% | 4 nM | 7% | 68% |
| LERYHQS[dA]RSSLRPYTK [SEQ ID NO: 52] | -2% | 121 nM |  |  |
| LRRYHHS[dA]RSSLEPYTK [SEQ ID NO: 65] | -5% | 40 nM |  |  |
| LERYHHSVRSS [SEQ ID NO: 23] | 23% | 28 nM |  |  |
| LRRYHHS[dA]DSSLRPYTK [SEQ ID NO: 68] | -10% | 13 nM |  |  |
| LERYQHS[dA]RSSLRPYTK [SEQ ID NO: 49] | 20% | 66 nM |  |  |
| LERYHNS[dA]RSSLRPYTK [SEQ ID NO: 46] | -4% | 187 nM |  |  |
| LRRYHQSVRSSLRPYTK [SEQ ID NO: 50] | -5% | 121 nM |  |  |
| LREYHHS[dA]RSSLRPYTK [SEQ ID NO: 32] | -18% | > 1000 nM |  |  |
| LERYHHSVRSSLR [SEQ ID NO: 21] | 20% | 16 nM |  |  |
| LERYHHSVRSSLRP [SEQ ID NO: 20] | 37% | 37 nM |  |  |
| LERYHHS[dA]RSSLRPYSK [SEQ ID NO: 78] | 72% | 12 nM | 29% | 46% |

| Binder | Percent Inhibition of CXCR4/CXCL12 Binding (400 nM peptide) [1] | IC50 for Inhibition of CXCR4 Activation (β-Arrestin recruitment) [2] | Percent Inhibition of CXCR4/CXCL12 Induced p-MEK (100 nM Test Article) [3] | Percent Inhibition of CXCR4/CXCL12 Induced p-MEK (1 µM Test Article) [3] |
| --- | --- | --- | --- | --- |
| LRRYQHSVRSSLRPYTK [SEQ ID NO: 47] | 5% | 11 nM |  |  |
| LRRYHHSVRSSLEPYTK [SEQ ID NO: 63] | 9% | 14 nM |  |  |
| LREYHHSVRSSLRPYTK [SEQ ID NO: 31] | -16% | > 1000 nM |  |  |
| LERYHQSVRSSLRPYTK [SEQ ID NO: 51] | -2% | 134 nM |  |  |
| LRRYHHSVRSSLRPY [SEQ ID NO: 25] | 0% | 51 nM |  |  |
| SVRSSLRPYTK [SEQ ID NO: 15] | -11% | > 1000 nM |  |  |
| LERYHHS[dA]RTSLRPYTK [SEQ ID NO: 76] | 75% | 6 nM | 5% | 44% |
| LERYHHT[dA]RSSLRPYTK [SEQ ID NO: 40] |  | 5 nM | 33% | 94% |
| LRRYHNSVRSSLRPYTK [SEQ ID NO: 44] | 0% | 32 nM |  |  |
| LERYHNSVRSSLRPYTK [SEQ ID NO: 45] | 1% | 121 nM |  |  |
| RYHHSVRSSLRPYTK [SEQ ID NO: 11] | -9% | 175 nM |  |  |
| LRRYNHSVRSSLRPYTK [SEQ ID NO: 41] | -2% | 4 nM |  |  |
| LRRYHHS[dA]ESSLRPYTK [SEQ ID NO: 64] | -6% | 14 nM |  |  |
| LRRYHHS[dA]RSSLRPYTK [SEQ ID NO: 6] | -10% | 8 nM |  |  |
| LRRYHHSVRSSL [SEQ ID NO: 28] | 12% | 4 nM |  |  |
| LRRYHHSVRSSLRP [SEQ ID NO: 26] | 1% | 67 nM |  |  |
| LRDYHHS[dA]RSSLRPYTK [SEQ ID NO: 37] | -14% | > 1000 nM |  |  |
| LRRYHHSVRSSLR [SEQ ID NO: 27] | 10% | 34 nM |  |  |
| LERYQHSVRSSLRPYTK [SEQ ID NO: 48] | 13% | 53 nM |  |  |
| RRYHHSVRSSLRPYTK [SEQ ID NO: 10] | -8% | 103 nM |  |  |
| HSVRSSLRPYTK [SEQ ID NO: 14] | -15% | > 1000 nM |  |  |
